From paper PMC11582362

Tested on: chimeric ADAR1-dsRBD3/Xlrbpa-dsRBD2 (Homo sapiens / Xenopus laevis?)
Experiment: ITC
Details: N = 3.05 ± 0.31; ITC: 25 mM Na-phosphate pH 7.0, 100 mM NaCl, 2 mM 2-mercaptoethanol, 25 °C; 2.25 uM dsRNA in cell, 80 uM protein in syringe

Question: Which Kd does the source give for “GGGAUCAAUAUGCUAAGCGAUCCC / GGGAUCGCUUAGCAUAUUGAUCCC [24 bp dsRNA duplex]” here?
Answer: 500 nM
